This test deals with GST-CD11a αI-domain. The test can be described thus: radioligand binding.

One may read the Kd as the concentration at which binding is half-saturated.

“32P-labeled pkISG15 (from UniProt P05161 1-157) (natural protein)”: the Kd was 656 nM.

The values above are taken from publication PMC5690536.
